According to US7029865:

T1: rhMC-4R (rhesus monkey)
T1 chain: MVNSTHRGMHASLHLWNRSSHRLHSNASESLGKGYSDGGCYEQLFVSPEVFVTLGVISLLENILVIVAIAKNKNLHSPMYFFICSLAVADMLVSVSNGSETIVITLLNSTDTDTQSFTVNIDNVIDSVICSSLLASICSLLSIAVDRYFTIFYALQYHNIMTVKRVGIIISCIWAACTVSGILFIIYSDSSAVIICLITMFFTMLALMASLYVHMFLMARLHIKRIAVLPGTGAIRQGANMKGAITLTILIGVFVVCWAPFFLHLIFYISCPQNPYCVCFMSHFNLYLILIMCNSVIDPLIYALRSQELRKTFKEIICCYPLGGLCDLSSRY


Columns and labels:
Test in all cases: competition
Details in all cases: modification not given
hMC-5R (human), P33032 = target: hMC-5R (human), P33032
hMC-4R (human), P32245 = target: hMC-4R (human), P32245
hMC-3R (human), P41968 = target: hMC-3R (human), P41968
rhMC-4R (rhesus monkey) = target: T1, rhMC-4R (rhesus monkey)

hMC-3R (human), P41968, sequence (P41968 whole entry): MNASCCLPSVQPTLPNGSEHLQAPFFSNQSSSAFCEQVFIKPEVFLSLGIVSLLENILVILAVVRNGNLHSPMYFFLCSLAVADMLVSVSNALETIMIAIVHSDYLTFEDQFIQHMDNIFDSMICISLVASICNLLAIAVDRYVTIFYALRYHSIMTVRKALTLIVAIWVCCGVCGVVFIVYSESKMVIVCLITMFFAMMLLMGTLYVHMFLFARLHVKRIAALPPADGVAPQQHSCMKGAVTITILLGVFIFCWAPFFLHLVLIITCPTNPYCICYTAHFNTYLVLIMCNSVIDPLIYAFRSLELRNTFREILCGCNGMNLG
hMC-5R (human), P33032, sequence (P33032 whole entry): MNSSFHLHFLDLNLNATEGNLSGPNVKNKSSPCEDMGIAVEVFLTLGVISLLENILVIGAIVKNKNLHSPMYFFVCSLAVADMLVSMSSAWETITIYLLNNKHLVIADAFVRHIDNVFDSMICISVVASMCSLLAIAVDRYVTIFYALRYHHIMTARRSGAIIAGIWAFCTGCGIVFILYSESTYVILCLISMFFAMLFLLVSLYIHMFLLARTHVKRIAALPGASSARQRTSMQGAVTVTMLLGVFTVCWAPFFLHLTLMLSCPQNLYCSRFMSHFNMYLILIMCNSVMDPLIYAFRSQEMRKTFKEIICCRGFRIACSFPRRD

IC50 (hMC-5R (human), P33032) [nM]	IC50 (hMC-4R (human), P32245) [nM]	IC50 (hMC-3R (human), P41968) [nM]	IC50 (rhMC-4R (rhesus monkey)) [nM]	Binder
0.4	6	6	1.3	SYSMEHFRWGKPVGKKRRPVKVYPNGAEDESAEAFPLEF [ACTH1-39, P01189]
			27	SYSMEHFRWGKPV [alpha-MSH, P01189]
